Reference: article PMC8455438 (Molecular cell, 2021)
Like-named read-outs stand apart in the source and are kept apart here.

T1: Recombinant IDH2 (R140Q) protein (ACTIVE MOTIF) (human, UniProt P48735 40-452, R140Q)
T1 sequence (looked up): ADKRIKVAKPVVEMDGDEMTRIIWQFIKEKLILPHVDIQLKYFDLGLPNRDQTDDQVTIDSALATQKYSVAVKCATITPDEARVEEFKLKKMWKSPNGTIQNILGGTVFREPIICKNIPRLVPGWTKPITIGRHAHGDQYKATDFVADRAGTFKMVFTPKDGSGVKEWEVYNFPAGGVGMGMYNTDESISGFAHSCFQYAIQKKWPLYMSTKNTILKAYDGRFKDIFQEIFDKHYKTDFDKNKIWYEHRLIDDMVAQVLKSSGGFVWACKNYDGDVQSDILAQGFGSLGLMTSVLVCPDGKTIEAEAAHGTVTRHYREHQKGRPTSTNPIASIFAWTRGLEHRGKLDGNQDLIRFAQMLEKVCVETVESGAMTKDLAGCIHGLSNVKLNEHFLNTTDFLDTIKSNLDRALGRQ


What was measured:
[1] = molecular target: T1, Recombinant IDH2 (R140Q) protein …; test: co-IP
[2] = molecular target: the molecule itself; test: native gel or EMSA
[3] = molecular target: the molecule itself; test: native gel or EMSA; remark: listed apart in the source

Row | binding result [1] | Binder | stoichiometry N [2] | also measured
1 | binds | recombinant ACAT1 (mitochondrial acetyl-coA acetyltransferase), wild type (enzyme, UniProt P24752 34-427, looked up) VSKPTLKEVVIVSATRTPIGSFLGSLSLLPATKLGSIAIQGAIEKAGIPKEEVKEAYMGNVLQGGEGQAPTRQAVLGAGLPISTPCTTINKVCASGMKAIMMASQSLMCGHQDVMVAGGMESMSNVPYVMNRGSTPYGGVKLEDLIVKDGLTDVYNKIHMGSCAENTAKKLNIARNEQDAYAINSYTRSKAAWEAGKFGNEVIPVTVTVKGQPDVVVKEDEEYKRVDFSKVPKLKTVFQKENGTVTAANASTLNDGAAALVLMTADAAKRLNVTPLARIVAFADAAVEPIDFPIAPVYAASMVLKDVGLKKEDIAMWEVNEAFSLVVLANIKMLEIDPQKVNINGGAVSLGHPIGMSGARIVGHLTHALKQGEYGLASICNGGGGASAMLIQKL |  | 
2 | binds | recombinant ACAT1 Y407F (phosphor-deficient mutant) (enzyme, UniProt P24752 34-427, looked up) VSKPTLKEVVIVSATRTPIGSFLGSLSLLPATKLGSIAIQGAIEKAGIPKEEVKEAYMGNVLQGGEGQAPTRQAVLGAGLPISTPCTTINKVCASGMKAIMMASQSLMCGHQDVMVAGGMESMSNVPYVMNRGSTPYGGVKLEDLIVKDGLTDVYNKIHMGSCAENTAKKLNIARNEQDAYAINSYTRSKAAWEAGKFGNEVIPVTVTVKGQPDVVVKEDEEYKRVDFSKVPKLKTVFQKENGTVTAANASTLNDGAAALVLMTADAAKRLNVTPLARIVAFADAAVEPIDFPIAPVYAASMVLKDVGLKKEDIAMWEVNEAFSLVVLANIKMLEIDPQKVNINGGAVSLGHPIGMSGARIVGHLTHALKQGEFGLASICNGGGGASAMLIQKL |  | 
3 | binds | recombinant ACAT1 treated with rFLT3 (Y407-phosphorylated) (enzyme, UniProt P24752 34-427, looked up, phosphotyrosine at Y407 (by rFLT3)) VSKPTLKEVVIVSATRTPIGSFLGSLSLLPATKLGSIAIQGAIEKAGIPKEEVKEAYMGNVLQGGEGQAPTRQAVLGAGLPISTPCTTINKVCASGMKAIMMASQSLMCGHQDVMVAGGMESMSNVPYVMNRGSTPYGGVKLEDLIVKDGLTDVYNKIHMGSCAENTAKKLNIARNEQDAYAINSYTRSKAAWEAGKFGNEVIPVTVTVKGQPDVVVKEDEEYKRVDFSKVPKLKTVFQKENGTVTAANASTLNDGAAALVLMTADAAKRLNVTPLARIVAFADAAVEPIDFPIAPVYAASMVLKDVGLKKEDIAMWEVNEAFSLVVLANIKMLEIDPQKVNINGGAVSLGHPIGMSGARIVGHLTHALKQGEYGLASICNGGGGASAMLIQKL |  | 
4 |  | 6xHis-IDH2 R140Q-FLAG, K413 not acetylated (pre-treated with cobB protein deacetylase, or deacetylated by rSIRT3) (enzyme, human, UniProt P48735 40-452, looked up) ADKRIKVAKPVVEMDGDEMTRIIWQFIKEKLILPHVDIQLKYFDLGLPNRDQTDDQVTIDSALATQKYSVAVKCATITPDEARVEEFKLKKMWKSPNGTIQNILGGTVFREPIICKNIPRLVPGWTKPITIGRHAHGDQYKATDFVADRAGTFKMVFTPKDGSGVKEWEVYNFPAGGVGMGMYNTDESISGFAHSCFQYAIQKKWPLYMSTKNTILKAYDGRFKDIFQEIFDKHYKTDFDKNKIWYEHRLIDDMVAQVLKSSGGFVWACKNYDGDVQSDILAQGFGSLGLMTSVLVCPDGKTIEAEAAHGTVTRHYREHQKGRPTSTNPIASIFAWTRGLEHRGKLDGNQDLIRFAQMLEKVCVETVESGAMTKDLAGCIHGLSNVKLNEHFLNTTDFLDTIKSNLDRALGRQ | 2 | 
5 |  | 6xHis-IDH2 R140Q-FLAG, K413-acetylated (by rACAT1 after cobB pre-treatment, or with intrinsic lysine acetylation obtained in bacteria) (enzyme, human, UniProt P48735 40-452, looked up, acetyl-lysine at K413 (rACAT1 acetylates mutant IDH2 at multiple lysine sites; intrinsic lysine acetylation obtained in bacteria)) ADKRIKVAKPVVEMDGDEMTRIIWQFIKEKLILPHVDIQLKYFDLGLPNRDQTDDQVTIDSALATQKYSVAVKCATITPDEARVEEFKLKKMWKSPNGTIQNILGGTVFREPIICKNIPRLVPGWTKPITIGRHAHGDQYKATDFVADRAGTFKMVFTPKDGSGVKEWEVYNFPAGGVGMGMYNTDESISGFAHSCFQYAIQKKWPLYMSTKNTILKAYDGRFKDIFQEIFDKHYKTDFDKNKIWYEHRLIDDMVAQVLKSSGGFVWACKNYDGDVQSDILAQGFGSLGLMTSVLVCPDGKTIEAEAAHGTVTRHYREHQKGRPTSTNPIASIFAWTRGLEHRGKLDGNQDLIRFAQMLEKVCVETVESGAMTKDLAGCIHGLSNVKLNEHFLNTTDFLDTIKSNLDRALGRQ |  | stoichiometry N [3]: 2
6 |  | 6xHis-IDH2 R140Q/K413R-FLAG (acetyl-deficient) (enzyme, human, UniProt P48735 40-452, looked up) ADKRIKVAKPVVEMDGDEMTRIIWQFIKEKLILPHVDIQLKYFDLGLPNRDQTDDQVTIDSALATQKYSVAVKCATITPDEARVEEFKLKKMWKSPNGTIQNILGGTVFREPIICKNIPRLVPGWTKPITIGRHAHGDQYKATDFVADRAGTFKMVFTPKDGSGVKEWEVYNFPAGGVGMGMYNTDESISGFAHSCFQYAIQKKWPLYMSTKNTILKAYDGRFKDIFQEIFDKHYKTDFDKNKIWYEHRLIDDMVAQVLKSSGGFVWACKNYDGDVQSDILAQGFGSLGLMTSVLVCPDGKTIEAEAAHGTVTRHYREHQKGRPTSTNPIASIFAWTRGLEHRGKLDGNQDLIRFAQMLEKVCVETVESGAMTRDLAGCIHGLSNVKLNEHFLNTTDFLDTIKSNLDRALGRQ | 2 | 
7 |  | 6xHis-IDH2 R140Q/K413Q-FLAG (acetyl-mimetic) (enzyme, human, UniProt P48735 40-452, looked up) ADKRIKVAKPVVEMDGDEMTRIIWQFIKEKLILPHVDIQLKYFDLGLPNRDQTDDQVTIDSALATQKYSVAVKCATITPDEARVEEFKLKKMWKSPNGTIQNILGGTVFREPIICKNIPRLVPGWTKPITIGRHAHGDQYKATDFVADRAGTFKMVFTPKDGSGVKEWEVYNFPAGGVGMGMYNTDESISGFAHSCFQYAIQKKWPLYMSTKNTILKAYDGRFKDIFQEIFDKHYKTDFDKNKIWYEHRLIDDMVAQVLKSSGGFVWACKNYDGDVQSDILAQGFGSLGLMTSVLVCPDGKTIEAEAAHGTVTRHYREHQKGRPTSTNPIASIFAWTRGLEHRGKLDGNQDLIRFAQMLEKVCVETVESGAMTQDLAGCIHGLSNVKLNEHFLNTTDFLDTIKSNLDRALGRQ | 2 | 
